PMC5543128

B1: 5'-biotin B4 (ssDNA)
DNA: GCCTGTTGTGAGCCTCCTGTCGAATACGCACATACTGTGTACCTTGAATTTATATTGAGCGTTTATTCTTGTCTCCC
B2: B4 (ssDNA)
DNA: B1 DNA
B3: D7 (ssDNA)
DNA: GCCTGTTGTGAGCCTCCTGTCGAATGCAGCATGGGGGATGTGCTCTTCCGCGTGTTGAGCGTTTATTCTTGTCTCCC
B4: D3 (ssDNA)
DNA: GCCTGTTGTGAGCCTCCTGTCGAAATCGGTCGTATAGGGTCGATTTGGTCGGCATTGAGCGTTTATTCTTGTCTCCC
B5: A5 (ssDNA)
DNA: GCCTGTTGTGAGCCTCCTGTCGAAGTGCAGGTCTATACAGGACAGTCTTCTGATTTGAGCGTTTATTCTTGTCTCCC
B6: A4 (ssDNA)
DNA: GCCTGTTGTGAGCCTCCTGTCGAAAATGCTGTTGTTTGAGTATCAATCAGACCGTTGAGCGTTTATTCTTGTCTCCC

Each binder was assayed against αC-conotoxin PrXA (Conus parius, UniProt P0C8S5 52-83) (assay: SPR). Conditions: tags: none; label: 5' biotin.
αC-conotoxin PrXA, sequence (P0C8S5 52-83): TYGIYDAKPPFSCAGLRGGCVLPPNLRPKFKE

Question: For B1, which Kd is on record?
Answer: Its Kd is 329 nM.

What follows are binders tested against FAM-αC-conotoxin PrXA (Conus parius, UniProt P0C8S5 52-83) (assay: fluorescence anisotropy). Conditions: tags: 5,6-carboxyfluorescein (FAM).
FAM-αC-conotoxin PrXA, sequence (P0C8S5 52-83): as above

Question: Which Kd does the source give for B2 here?
Answer: The Kd was 120 ± 21.3 nM.

Question: Which Kd does the source give for B3 here?
Answer: The Kd was 238 ± 30.6 nM.

Question: B4 was tested. Which Kd did it give?
Answer: The Kd was 122 ± 25.3 nM.

Question: With B5 as the binder, how does the Kd read?
Answer: Its Kd is 184 ± 69.7 nM.

Question: B6 was tested. Which Kd did it give?
Answer: The Kd was 246 ± 66.6 nM.
